Data published in publication PMC9888386 (The Journal of Clinical Investigation, 2023).

Biological target: T1, KEAP1 (microscale thermophoresis assay) (UniProt Q14145 1-624)
T1 construct: KEAP1 as used in the microscale thermophoresis assay; May be the same as GST-KEAP1-WT
Assay: MST; microscale thermophoresis; conditions in the Supplemental Methods, not shown

T1 sequence (Q14145 whole entry): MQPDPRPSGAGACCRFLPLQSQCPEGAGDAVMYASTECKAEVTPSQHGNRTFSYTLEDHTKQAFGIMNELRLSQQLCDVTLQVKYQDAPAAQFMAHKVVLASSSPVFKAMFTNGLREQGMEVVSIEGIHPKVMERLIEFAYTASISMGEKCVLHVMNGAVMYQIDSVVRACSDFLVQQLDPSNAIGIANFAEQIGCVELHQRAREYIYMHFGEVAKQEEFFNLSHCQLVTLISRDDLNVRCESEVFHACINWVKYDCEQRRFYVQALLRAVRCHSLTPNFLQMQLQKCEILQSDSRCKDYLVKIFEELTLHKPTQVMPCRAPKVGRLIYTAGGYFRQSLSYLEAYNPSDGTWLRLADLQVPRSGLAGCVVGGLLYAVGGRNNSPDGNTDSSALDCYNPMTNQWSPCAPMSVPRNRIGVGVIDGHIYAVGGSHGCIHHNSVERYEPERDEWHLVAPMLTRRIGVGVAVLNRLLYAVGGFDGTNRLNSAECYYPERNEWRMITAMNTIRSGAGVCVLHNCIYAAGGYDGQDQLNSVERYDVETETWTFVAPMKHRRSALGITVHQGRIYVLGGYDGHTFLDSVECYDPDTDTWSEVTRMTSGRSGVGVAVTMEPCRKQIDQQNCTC

- Kd: 5.28 µM
B1: truncated NRF2 (NRF2^ΔDLG) (natural protein)
chain: MMDLELPPPGLPSQQDMDLIDILWRQDIVSREVFDFSQRRKEYELEKQKKLEKERQEQLQKEQEKAFFAQLQLDEETGEFLPIQPAQHIQSETSGSANYSQVAHIPKSDALYFDDCMQLLAQTFPFVDDNEVSSATFQSLVPDIPGHIESPVFIATNQAQSPETSVAQVAPVDLDGMQQDIEQVWEELLSIPELQCLNIENDKLVETTMVPSPEAKLTEVDNYHFYSSIPSMEKEVGNCSPHFLNAFEDSFSSILSTEDPNQLTVNSLNSDATVNTDFGDEFYSAFIAEPSISNSMPSPATLSHSLSELLNGPIDVSDLSLCKAFNQNHPESTAEFNDSDSGISLNTSPSVASPEHSVESSSYGDTLLGLSDSEVEELDSAPGSVKQNGPKTPVHSSGDMVQPLSPSQGQSTHVHDAQCENTPEKELPVSPGHRKTPFTKDKHSSRLEAHLTRDELRAKALHIPFPVEKIINLPVVDFNEMMSKEQFNEAQLALIRDIRRRGKNKVAAQNCRKRKLENIVELEQDLDHLKDEKEKLLKEKGENDKSLHLLKKQLSTLYLEVFSMLRDEDGKPYSPSEYSLQQTRDGNVFLVPKSKKPDVKKN
